Experimental data published in paper PMC11384114.

Biological target: cLUC-SlPIF4 (tomato (Solanum lycopersicum))
Test: split reporter (BiFC, NanoBiT); split luciferase complementation: cLUC-SlPIF4 and nLUC-SlDELLA co-expressed in N. benthamiana leaves for 2 days; 1 mM D-luciferin; camera and microplate luminometer

cLUC-SlPIF4 (tomato (Solanum lycopersicum)), sequence (main, as listed by the source): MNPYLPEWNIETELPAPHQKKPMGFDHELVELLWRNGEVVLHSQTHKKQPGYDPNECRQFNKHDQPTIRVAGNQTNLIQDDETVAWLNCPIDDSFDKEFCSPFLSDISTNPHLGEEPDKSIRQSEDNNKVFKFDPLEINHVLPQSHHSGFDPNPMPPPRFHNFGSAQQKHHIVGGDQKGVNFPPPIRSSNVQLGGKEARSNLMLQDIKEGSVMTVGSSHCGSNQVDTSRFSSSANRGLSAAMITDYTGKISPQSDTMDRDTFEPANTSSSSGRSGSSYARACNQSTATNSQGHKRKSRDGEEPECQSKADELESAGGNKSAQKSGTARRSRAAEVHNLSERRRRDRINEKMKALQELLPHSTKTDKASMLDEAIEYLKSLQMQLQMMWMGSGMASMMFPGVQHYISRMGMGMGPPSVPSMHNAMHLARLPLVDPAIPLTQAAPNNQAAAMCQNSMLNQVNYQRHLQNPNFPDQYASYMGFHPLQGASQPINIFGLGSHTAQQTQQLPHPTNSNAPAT

nLUC-SlDELLA (natural protein)
luciferase activity, fold over the control co-expressing cLUC and nLUC (times the control): 170
